Measurements reported in the domain aggregation screens of Martell et al. (2025).

Test: soluble fraction after stress (log2 fold change); higher = more stays soluble; pooled small domains, quantitative proteomics
Conditions: stress: 50 degC
Summary of the method: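 Pooled custom libraries of small protein domains were measured in a high-throughput format, with quantitative proteomics as the read-out. Each library was stressed at 50°C. Aggregation propensity is given as the base-two logarithm of the fold change in how much of each protein stays soluble after the stress. Higher values mean a larger share of the protein remains in solution.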

Sequence	soluble fraction (log2)
HMGGEHPIPEDWAVNEANYEHGAKFYGYTRAHVDAEAQAFRDQYAANGKKYVDWDAHFRTFMRWQNERRYG	-0.111
HMKFPPASDIRRMRKAIDVTQTELAKQSGVSQSTIAKIERGRISASYDTVVKLFETLDEMAK	-0.141
HMLTKAEEQVMDYLWKLEKAFVKDILDEFPEPKPAYTTVSTMVRILEKKGMVGYTAYGKNHQYYPL	-1.84
HMANTVVMPNLLGKTMTEAKIELKELGIDITLKGSESSSKYSAGQIMEQNIAEGTKVEVGSSVEVTIAGS	-0.306
HMDDLFGNAIEMFNNQRYDMTYELLVQLLSETPNNEKAWQLLADTKFMLGDYDDALHIVGKAAK	-0.89
HMAQVRSTVERRENGTYTVELNLNDDVDNVMRLQLMVATKEMAEDLAQRFQKNPEQVYSQLVTALYG	0.0631
HMAPLRTQYVNVNYANAAEIKTLISGADKEVGSLLSERGSVVVDKRTNTLIIQDTQARLNDIGDLIEQLD	-0.0505
HMKAQTVPQFVGMTMTEAEEKASELGITLIEGAVVDSVEPKDTILTQDVDEGTEITGKMEIMVTISS	-0.28
HMISKRFQVDEENSNNRVDIFLANNLDSISRGIVQQLILDGKVLVNGETVKRNHLLKTNDEVDISFEI	0.298
HMSTLSIHIPDKFAGQRLDQALAELYSQFSRSRLQQWLNDGELLVDGKSVKANKKVLGGEFIQILK	-0.861
HMGYPGLGSIGSKPLGDLLFQSKLFVKTKREFAEFKMANNNIVWGRRTQYLVRNYPLSVMEVFL	-0.0279
HMDNEIEQIVEDLNLTLSSLKYTKNQIESILPLIIKEIDDFKKKEKNISFENLLKLAMNHLDND	-0.269
HMSELTKEIGKRIHDFRKSRGLNQEELARLIYKSKATLSKYEKGEIAIDLDTLKQLALALHVRMEQLLPPT	-0.0472
HMQMEYEKAIAYILDKIKSGELSIGSKLPAERVIADTLHIGRNSTREALSILHGMGMVDRVHGSGNYISEH	-0.421
HMNQSKYQTIADELKSKILSGEYPENTTIPPELQLQKDYQVSRHTIRQAIALLANEGFLRKEKGSGTYVDV	0.0512
HMSQRITYTEFVQMVKDDKVEKVEVGANQYNITPKSDDKTLVKMTYYTGFIKDENLLDLLNKHKVEIDGYI	0.157
HMTPFLVRVDISDLNIRTGAGTNYSRTGQYTGKGIFTILEVKSGQGSDAGWGRLKSGAGWISLDYTTR	-2.82
HMTVDIADALRVLGLSDAPDWSDVRAAHRRAIVRTHPDAGGSAGDAARVNQAFDLLRKISGNGERPIPG	0.154
HMDAEWRTLTLAPEQHQQRLDRALADSLPEFSRSYVQQLIDTGMVRVNGVLAAKSAQRVKALDQVQVELR	-0.229

Sequence	soluble fraction (log2)
HMEADERRNEILDAAETLITEKGYSKTTIIDILNQVGIAKGTFYYYFKSKEEVMDAIIERFI	-2.25
HMSSETTVPAVVGIKEDKARQLASEQGLRLRVKSREESADVEEGIIISQDPNSNTKVKKGDEIEVVVS	0.254
HMPDITAAVARTLQALRADRGWSLDQLAARSGVSKGVLVALEQGRSNPNLATLARIGDAFGVPVTLLVDL	-0.543
HMDPDDEILINIMTKLLTEKQIIIKNKEIFNFLLKRINRTYEEVYNLINKMDKLSLEKKKQLTIPSIKEL	-1.21
HMVPSTAVIFTELVSMRSEPATKSPVTHQLTKGTAITINEEKDGWYQVTDQTGNSGWIVKWAVKPTYFTNP	-0.0492
HMALQDKYKELTDAATAAGVTDLQVREQDNVLYIDGTAPSGAVKDQLWAIYDKIDPNFVSGDLVLNVNVD	0.0655
HMRVPQWLVDKIAAAGIDTHRSGPALKALAAKAGTPEQLDQAIARAKALRRRTGSTQSLNVGLLGSILEGT	-0.106
HMGDIQFMEYRINHSSGWIGKNISDFAAVSKNLVILIKRGQDVVIPRGPTAIMEDDVLVLHA	-1.6
HMKTPIEFGSVYNDPVRYVIGMSIKSAESINQAIYDMMKIFGDENNMNKFDSLPDEQAVLDMVNSF	0.0157
HMIKLIKKDTNISELKMSKMPWDVMLYGKPYQVVSIKGYVHTIGGRRGENDLWMYPRDESPTYENLIEFQ	-2.61
HMEPERRHLEVPAEAEGERIDRFLASQLENLSRSRIQALIKAGYVRNRRGTIEDPGLRVKPGDAFVVDLPP	0.44
HMSLEEIPLEERLGPGGLDPVAVYDSLPREMRDAFDSGSVSALREFVNALPAEDAARHMKAMVDSGLWVPT	0.0547
HMVVEGMQFDRGYLSQYMVTDNEKMVADLENPYILITDKKISNIQEILPLLESILQSSRPLLIIADD	-0.214
HMEAFAEAVASMLRKLQPEFAIDLVGPRELLVNGRRLDLENLYRMVNHEPVRGQEIVEHYLDQLFAG	-0.53
HMINAQETEIYRFLIEKANRLYSMVLGLKREELMTATRQFEEEVKHSSIHHLPKIYQAFSSYLELLERG	-0.478
HMGSLAVVPSLTGKTLQEAQSKAADYGLALEIEGYVASTAVDYGRIVSQSPDAGFSVKSGSSVKVSVSAG	0.117
HMDQFMLQSAWLRAVQHVMKHTDDVGTQFAEEARRMHYGEADERPIRGQATSDEARALHDEGIEVMALPI	-0.303
HMATLAVPNLMRLSQGEAMALIRLSGLSIGNVSIDSSMGSPRVIRQEPQASGGMLVLTQGDQVHLWLEGP	-3.2
HMHGERVVTAGQTVRVVFTSNGLQVSSEGKALAAGAVGDDIQVRAASGKVIRGTVTGPGVVQV	0.231
